The record followed here is US20070218061A1 (VASGENE THERAPEUTICS, published 2007).

Where two headings read alike, the source gives them in different places.

In assay [1] the target is HeV and NiV F and G envelope glycoproteins (on effector cells). The assay can be described thus: cell-based or functional assay.
Assay [2] shares this target. The assay can be described thus: cell-based or functional assay. The source holds these as a separate data set.
Assay [3] has as its target T1, B4ECv3 (human, UniProt P54760 16-537).
T1 construct: also called B4ECv3 protein
T1 sequence: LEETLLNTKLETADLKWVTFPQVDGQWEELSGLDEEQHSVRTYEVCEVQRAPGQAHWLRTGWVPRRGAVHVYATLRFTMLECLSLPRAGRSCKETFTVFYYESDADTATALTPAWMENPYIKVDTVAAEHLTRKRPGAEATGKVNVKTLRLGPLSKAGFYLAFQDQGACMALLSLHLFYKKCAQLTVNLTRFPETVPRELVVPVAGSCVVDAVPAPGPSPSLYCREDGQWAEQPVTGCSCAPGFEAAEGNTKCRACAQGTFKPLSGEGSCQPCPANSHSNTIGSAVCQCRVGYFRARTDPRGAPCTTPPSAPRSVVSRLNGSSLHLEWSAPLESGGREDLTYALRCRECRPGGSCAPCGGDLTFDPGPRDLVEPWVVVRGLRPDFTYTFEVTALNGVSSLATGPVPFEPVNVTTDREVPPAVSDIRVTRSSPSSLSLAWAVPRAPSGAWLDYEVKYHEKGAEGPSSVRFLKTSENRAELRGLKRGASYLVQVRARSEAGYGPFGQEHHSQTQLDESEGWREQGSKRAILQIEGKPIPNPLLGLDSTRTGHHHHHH
The assay can be described thus: biochemical assays; B4ECv3 on Ni-NTA agarose, 50 nM B2-AP, PNPP colorimetry.

For the molecule “human EphrinB2EC-Human serum albumin fusion protein (from UniProt P52799 28-229)”, in assay [1], the % fusion (cell fusion assay), 0.1 µg/ml inhibitor was found to be 85.3%; the % fusion (cell fusion assay), 1.0 µg/ml inhibitor amounted to 115%; the % fusion (cell fusion assay), 10 µg/ml inhibitor stood at 64%; the % fusion (cell fusion reporter gene assay, beta-Gal), 10 µg/ml protein was 54.8%.
“Murine EphrinB2-Ec-Fc (from UniProt P52800 29-232) (Fc fusion)”: in assay [1], the % fusion (cell fusion assay), 0.1 µg/ml inhibitor worked out at 70.7%; the % fusion (cell fusion assay), 1.0 µg/ml inhibitor worked out at 1.87%; the % fusion (cell fusion assay), 10 µg/ml inhibitor is 2.93%; the % fusion (cell fusion reporter gene assay, beta-Gal), 10 µg/ml protein came to 8.33%.
On to “Bovine Serum Albumin (from UniProt P02769 25-607)”, for which, in assay [1], the % fusion (cell fusion assay), 0.1 µg/ml inhibitor worked out at 112%; the % fusion (cell fusion assay), 1.0 µg/ml inhibitor was determined as 112%; the % fusion (cell fusion assay), 10 µg/ml inhibitor was 124%; the % fusion (cell fusion reporter gene assay, beta-Gal), 10 µg/ml protein was 126%.
Turning to “Inactivated Human EphrinB2-Ec (from UniProt P52799 28-225) (ligand)”, in assay [1], the % fusion (cell fusion assay), 0.1 µg/ml inhibitor was 103%; the % fusion (cell fusion assay), 1.0 µg/ml inhibitor amounted to 104%; the % fusion (cell fusion assay), 10 µg/ml inhibitor amounted to 77.3%; the % fusion (cell fusion reporter gene assay, beta-Gal), 10 µg/ml protein came to 83.3%.

B1: Murine EphrinB1-EC-Fc (Fc fusion)
chain: ATPLAKNLEPVSWSSLNPKFLSGKGLVIYPKIGDKLDIICPRAEAGRPYEYYKLYLVRPEQAAACSTVLDPNVLVTCNKPHQEIRFTIKFQEFSPNYMGLEFKKYHDYYITSTSNGSLEGLENREGGVCRTRTMKIVMKVGQDPNAVTPEQLTTSRPSKESDNTVKTATQAPGRGSQGDSDGKHETVNQEEKSGPGAGGGGSGDSDSFFNSK
On to B1, for which, in assay [2], the % fusion (cell fusion assay), 0.1 µg/ml inhibitor worked out at 109%; the % fusion (cell fusion assay), 1.0 µg/ml inhibitor is 133%; the % fusion (cell fusion assay), 10 µg/ml inhibitor turned out to be 147%; the % fusion (cell fusion reporter gene assay, beta-Gal), 10 µg/ml protein turned out to be 140%.

B2: Murine EphrinA2-EC-Fc (Fc fusion)
chain: RNEDPARANADRYAVYWNRSNPRFQVSAVGDGGGYTVEVSINDYLDIYCPHYGAPLPPAERMERYILYMVNGEGHASCDHRQRGFKRWECNRPAAPGGPLKFSEKFQLFTPFSLGFEFRPGHEYYYISATPPNLVDRPCLRLKVYVRPTNETLYEAPEPIFTSN
In the case of B2, in assay [2], the % fusion (cell fusion assay), 0.1 µg/ml inhibitor was 81.3%; the % fusion (cell fusion assay), 1.0 µg/ml inhibitor came to 104%; the % fusion (cell fusion assay), 10 µg/ml inhibitor is 112%; the % fusion (cell fusion reporter gene assay, beta-Gal), 10 µg/ml protein came to 117%.

B3: EphrinB2EC-AP from pAPTag2 (ligand)
chain: IVLEPIYWNSSNSKFLPGQGLVLYPQIGDKLDIICPKVDSKTVGQYEYYKVYMVDKDQADRCTIKKENTPLLNCAKPDQDIKFTIKFQEFSPNLWGLEFQKNKDYYIISTSNGSLEGLDNQEGGVCQTRAMKILMKVGQDASSAGSTRNKDPTRRPELEAGTNGRSSTTSPFVKPNPGSSTDGNSAGHSGNNILGSEGSSGIIPVEEENPDFWNREAAEALGAAKKLQPAQTAAKNLIIFLGDGMGVSTVTAARILKGQKKDKLGPEIPLAMDRFPYVALSKTYNVDKHVPDSGATATAYLCGVKGNFQTIGLSAAARFNQCNTTRGNEVISVMNRAKKAGKSVGVVTTTRVQHASPAGTYAHTVNRNWYSDADVPASARQEGCQDIATQLISNMDIDVILGGGRKYMFPMGTPDPEYPDDYSQGGTRLDGKNLVQEWLAKRQGARYVWNRTELMQASLDPSVTHLMGLFEPGDMKYEIHRDSTLDPSLMEMTEAALRLLSRNPRGFFLFVEGGRIDHGHHESRAYRALTETIMFDDAIERAGQLTSEEDTLSLVTADHSHVFSFGGYPLRGSSIFGLAPGKARDRKAYTVLLYGNGPGYVLKDGARPDVTESESGSPEYRQQSAVPLDEETHAGEDVAVFARGPQAHLVHGVQEQTFIAHVMAFAACLEPYTACDLAPPAGTTDAAHPG
notes: also called B2-AP; B2ECAP reagent
For the molecule B3, the binding result in assay [3] is given as “binds”.
